± gives the uncertainty stated by the source.
assay: amyloid nucleation score (Sup35N fusion, yeast selection) (log enrichment); library NNK1; higher = more nucleation; inactive = no reads after selection
Procedure, shortened: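 Psi-negative yeast expressed Sup35N fused to peptides of 20 random codons. They were induced 24 hours with 100 μM copper sulfate, grown 7 days at 30°C without adenine and uracil, and their plasmid inserts from input and output were Illumina-sequenced. The nucleation score is the DiMSum log enrichment of output over input reads, centred on the mode score of non-aggregating sequences. Sequences with under 100 input reads were excluded.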

Row | Substance | amyloid nucleation score
1 | IVWESLFNKFAITVGMLGFM | 1.63 ± 0.43
2 | IWCVFIQWLCSRRVERQSCR | 4.31 ± 0.11
3 | IWDASKVGSYAELHTLM | 0.744 ± 0.33
4 | IWGDKIHGFHGVIMMQSGMV | -0.762 ± 0.71
5 | IWKKLITNWMAYLTLNNFAL | inactive
6 | IWLDCIGRYSGVYRHVINDV | -0.863 ± 0.37
7 | IWQFDWPHRGIEMRVRRDMT | 0.135 ± 0.69
8 | IYCGNSEF | -0.048 ± 0.79
9 | IYFFIPFSPVGDTDRSFWGY | -0.059 ± 0.98
10 | IYFGFCRD | 2.02 ± 0.089
11 | IYFVIDCN | 0.835 ± 0.56
12 | IYGIMLG | inactive
13 | IYIIPFDRNLYPISIHVLVR | inactive
14 | IYLCLATYFLYPRLVWTSTL | 0.521 ± 0.72
15 | IYLKWHFADY | 0.529 ± 0.45
16 | IYLMIGHWESNNKLNICVLP | 3.7 ± 0.11
17 | IYMCIGWQ | 7.268 ± 0.044
18 | IYMMECEVL | -0.157 ± 0.42
19 | IYMYIVNRRVTGSFRF | -0.136 ± 0.23
20 | IYRLTCETEVRCGTFNDIVD | 0.105 ± 0.21
21 | IYTVVRAVCMGPGSGWLFRK | -1.05 ± 1.2
22 | IYVRGRMRVMGARH | -1.26 ± 1.5

Row | Substance | amyloid nucleation score
23 | IYWRILEL | -0.034 ± 0.85
24 | IYYMYYLYHYWMILRENDFM | 0.151 ± 0.21
25 | KAFLTRRFLNLYVRIKPYMV | -0.503 ± 0.3
26 | KAGRGICESYRSFHPRPVFA | 0.034 ± 0.4
27 | KCGIVVNVQHRKPRGRIPAQ | -1.02 ± 0.67
28 | KDICY | 0.864 ± 0.51
29 | KDQTTYMDCFV | 0.101 ± 0.49
30 | KELCCRASSDLMLRWQVKVF | 0.027 ± 1.4
31 | KELKYCVFALVVAD | 0.012 ± 0.63
32 | KFDPVKQYLCMYFFTYQIES | 2.06 ± 0.15
33 | KFFLRNGVAGTTVLLVQGLQ | inactive
34 | KFIEMRRNKSPKHLPAWASD | 0.911 ± 0.54
35 | KFMLWPNIWMN | 0.916 ± 0.54
36 | KFYSMKTSNFWCI | 2.04 ± 0.18
37 | KGHRCNIVTTNTAPRFPW | -0.482 ± 0.91
38 | KGKECKRFLVNTKIGSNRT | inactive
39 | KGRVKGSVASSLS | -0.309 ± 0.57
40 | KGTCCPPLPVILDIMEDSSR | -0.227 ± 0.38
41 | KGVHGYCRRIM | inactive
42 | KHCRVSPNVSECAFKGAMCL | 1.17 ± 0.63
43 | KHICTAFRSVEFAEGIR | 0.658 ± 0.46
44 | KHLYVR | -0.752 ± 0.56

Row | Substance | amyloid nucleation score
45 | KIDGRPVHIPRFRYDNDNKV | -0.359 ± 0.47
46 | KIKVPRIVLVCKCILFNNLW | 1.51 ± 0.34
47 | KILCMSCFTNSYHARWTFIL | 5.694 ± 0.051
48 | KIMCELCNSVRNALWRTLRG | -0.01 ± 0.71
49 | KIMLSRMYNQYMGCQVKFW | -0.409 ± 0.51
50 | KITHLFFKSSYVIVKLLYVI | 0.082 ± 0.51
51 | KKGLSKMVKPVYSCLN | -1 ± 1.6
52 | KKMIFTVVVECSKLWPLRVV | 0.399 ± 0.69
53 | KKYVRGWGAFLAMQHGGMM | -0.604 ± 0.6
54 | KLALRKGSRDVH | 0.661 ± 0.97
55 | KLARTMGYTGTSMVACFCVV | inactive
56 | KLFDYAVYLC | 0.936 ± 0.5
57 | KLFESYVLSRGMVPETVKAV | 0.226 ± 0.78
58 | KLFLLGAINGQFI | 4.87 ± 0.066
59 | KLLSGGVNTWRPTGTSRLEI | -0.053 ± 0.46
60 | KLPRTCAPLYHMLTHGVGHR | -0.075 ± 0.72
61 | KLQVGSPN | -0.053 ± 1.4
62 | KLSGMIAEMRAGPCTYRILY | -0.511 ± 0.45
63 | KLSNEYW | -0.485 ± 0.36
64 | KLTQKCHKCLH | 0.107 ± 0.68
65 | KLVLRGVFIIDFWSNARRAS | 0 ± 0.29
66 | KLYGLVFFLVYGNDGSKRDL | 0.779 ± 0.36

Row | Substance | amyloid nucleation score
67 | KMAYRVVNNLGCSIMCNICT | 7.616 ± 0.046
68 | KMIPMTYASKVLKCRLFEVK | 1.14 ± 0.76
69 | KMLVGHS | 0.087 ± 0.83
70 | KMMPWVLLGRKLRLWRLCTK | -0.463 ± 0.56
71 | KMRKIDAR | 2.63 ± 0.11
72 | KMSGTLQ | -0.115 ± 1.4
73 | KMYLLRIQ | 0.661 ± 0.82
74 | KNFAVRWNPVTSDWFVTLSV | -0.429 ± 0.4
75 | KNFWKGVLYSIRCHNQWNVG | 5.41 ± 0.092
76 | KNHYYFA | -0.203 ± 0.38
77 | KNRRSCIMNIGRYWRVQMVI | -0.846 ± 0.68
78 | KNVARVHMQCLPAYVLGRNH | 0.018 ± 0.66
79 | KPMFSLGSNYKMCIYHGCFM | 8.183 ± 0.061
80 | KQFDTSGLNVRRSCNRSRHM | 0.301 ± 0.56
81 | KQRIFEMLPWGPRPLYPVWG | 0.405 ± 0.43
82 | KRERGKISIEEAMRQAGQRS | 0.578 ± 0.7
83 | KRNLRVHSTGIFRYRIWKA | -0.047 ± 0.48
84 | KRTLGTRGRIQVKSCPVGEL | -0.467 ± 0.35
85 | KRVCLFLGSWNRHHLLGLFG | 1.41 ± 0.84
86 | KRVLCSTCIHRLCPKSGGDC | 1.33 ± 0.68

From the supplement of paper PMC12042874
